The text below walks through data of PMC10208570, “Peptidomimetic antibiotics disrupt the lipopolysaccharide transport bridge of drug-resistant Enterobacteriaceae” (Science Advances, 2023).

This test concerns the target LptAm^Q62L (E. coli) (E. coli (ATCC 25922)). The test is described as follows: fluorescence polarisation; indirect (competition) assay: unlabeled peptide or protein serially diluted into a 1:1 mixture of Lpt protein and 6-FL (2x stock 70 nM); 50 mM Na-Pi pH 7, 150 mM NaCl, 0.05% Tween 20; incubated overnight at 4°C, read at 25°C; triplicates; Ki from IC50 by Cheng-Prusoff. Background: In fluorescence polarisation assays a small probe gives low polarisation when free and higher when bound to something large.

B1: mLptA (E. coli), LptA(25-185) E39V M47A R76A (domain or fragment)
chain: GAFAVTGDTDQPIHIVSDQQSLDAQGNVVTFTGNVIVTQGTIKINADKVVVTAPGGEQGKEVIDGYGKPATFYQMQDNGKPVEGHASQMHYELAKDFVVLTGNAYLQQVDSNIKGDKITYLVKEQKMQAFSDKGKRVTTVLVPSQLQDKNNKGQTPAQKKGN
Turning to B1, the Ki (as a rule, the equilibrium dissociation constant of an inhibitor or competing ligand from its target) stood at 69 nM.
